Where “and” joins values, the source holds several entries; their conditions need not be identical. Equal values may be shown once. Read-outs that look alike come from different tables or passages of the source.
Experiments:
[1] = biological target: T1, human Complement Factor D (serum purified) (human, UniProt P00746 26-253); experiment: cell-based or functional assay
[2] = biological target: T1, human Complement Factor D (serum …); experiment: KinExA in solution, 37 degrees; free CFD captured on OG1931 beads and detected with KCD004-A647
[3] = biological target: T1, human Complement Factor D (serum …); experiment: SPR (Biacore), antibody captured on Protein A chip, serum purified human CFD as analyte, 25 degrees
[4] = biological target: T1, human Complement Factor D (serum …); experiment: SPR (Biacore), conjugate captured on Protein A chip, serum purified human CFD as analyte, 25 degrees
[5] = biological target: T2, recombinant human CFD mutant 1 (R157A, R207A), His-tagged (human, UniProt P00746 26-253); experiment: ELISA, Mut1 Binding, Bin 3
T2 construct: positions are linear positions in the mature protein; also called rhCFD-mut1-His; Mut1
T2 sequence (P00746 26-253 R182A/R232A limits assumed): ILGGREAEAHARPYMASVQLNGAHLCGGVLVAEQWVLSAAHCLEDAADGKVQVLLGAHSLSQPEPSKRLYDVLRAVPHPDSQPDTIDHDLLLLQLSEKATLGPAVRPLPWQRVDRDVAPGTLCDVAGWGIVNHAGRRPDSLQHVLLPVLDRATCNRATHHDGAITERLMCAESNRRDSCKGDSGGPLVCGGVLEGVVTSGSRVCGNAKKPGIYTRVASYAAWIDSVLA

[6] = biological target: T3, human complement factor D purified from serum (human, UniProt P00746 26-253); experiment: SPR MX96
T3 construct: serum-purified (CompTech); also called hCFD-Comptech; CFD
T3 sequence (P00746 26-253): as the sequence (P00746 26-253 R182A/R232A limits assumed) above, with A157R, A207R counted along it

[7] = biological target: T4, recombinant human CFD, His-tagged (human, UniProt P00746 26-253); experiment: SPR MX96
T4 construct: also called rhCFD-His
T4 sequence (P00746 26-253 limits assumed): as the sequence (P00746 26-253 R182A/R232A limits assumed) above, with A157R, A207R counted along it

[8] = biological target: T5, recombinant cynomolgus CFD, His-tagged (cynomolgus); experiment: SPR MX96
T5 construct: also called rcyCFD-His; recombinant Cyno-CFD

[9] = biological target: T2, recombinant human CFD mutant 1 (R157A, …); experiment: ELISA
[10] = biological target: T3, human complement factor D purified from …
[11] = biological target: T6, human Complement Factor D (CFD), purified from human serum (human, UniProt P00746 26-253); experiment: SPR Biacore, full-length IgG captured on protein A chip, serum purified CFD
T6 construct: serum purified (CompTech A136); also called serum purified CFD; hCFD-Comptech
T6 sequence (P00746 26-253): as the sequence (P00746 26-253 R182A/R232A limits assumed) above, with A157R, A207R counted along it

[12] = biological target: T6, human Complement Factor D (CFD), …; experiment: SPR MX96, mAbs amine-coupled, CFD injected
[13] = biological target: T7, recombinant cynomologus Complement Factor D (cynomolgus); experiment: SPR Biacore, antibody on protein A chip, cyCFD in flow, single cycle kinetics, 37 C
T7 construct: also called cyCFD; cyno CFD

[14] = biological target: T8, serum purified human Complement Factor D (human, UniProt P00746 26-253); experiment: SPR Biacore, antibody on protein A chip, single cycle kinetics, 37 C
T8 construct: Serum purified protein flowed over the captured antibodies; also called CFD; human CFD
T8 sequence (P00746 26-253): as the sequence (P00746 26-253 R182A/R232A limits assumed) above, with A157R, A207R counted along it

[15] = biological target: T8, serum purified human Complement Factor D; experiment: SPR Biacore T200, biotinylated OG1965 captured on neutravidin CM5 chip, single cycle kinetics, 25 C
[16] = biological target: T8, serum purified human Complement Factor D; experiment: SPR Biacore, antibody on protein A chip, single cycle kinetics, 25 C
[17] = biological target: T8, serum purified human Complement Factor D; experiment: as above; remark: listed apart in the source
[18] = biological target: T8, serum purified human Complement Factor D; experiment: SPR Biacore, antibody on protein A chip, single cycle kinetics, 37 C; remark: listed apart in the source
[19] = biological target: T8, serum purified human Complement Factor D; experiment: SPR Biacore T200, biotinylated OG1965 captured on neutravidin CM5 chip, single cycle kinetics, 37 C
[20] = biological target: T3, human complement factor D purified from …; remark: listed apart in the source
[21] = biological target: T2, recombinant human CFD mutant 1 (R157A, …); experiment: ELISA; remark: listed apart in the source
[22] = biological target: T2, recombinant human CFD mutant 1 (R157A, …); experiment: SPR MX96

T1 sequence (P00746 26-253): as the sequence (P00746 26-253 R182A/R232A limits assumed) above, with A157R, A207R counted along it

B1: OG1965 (antibody, IgG1, V domains shown)
VH: EVQLVESGGGLVQPGGSLRLSCAASGYTFTDYYINWVRQAPGKGLEWIGDINPITGDTDYNADFKRRFTFSLDTSKSTAYLQMSSLRAEDTAVYYCTREGPSFAYWGQGTLVTVSS
VL: DIQLTQSPSSLSASVGDRVTITCRSSQTIVHSNGDTYLEWYQQKPGKAPNLLIRKVSNRFSGVPSRFSGSGSGTDFTLTISSLQPEDFATYYCFQGSHVPVTFGQGTKVEIKR
notes: also called 34I54I59D84S/54R101V; 34I54I59D84S (heavy) / 54R101V (light)
In the case of B1, the “EC50 (nM) in hemolysis assay (rabbit RBC, normal human serum)” value [1] is reported as 1.74 nM, the Kd [2] is reported as 0.00586 nM and the kon [2] is reported as 3.06e+07 M⁻¹ s⁻¹. It also gave a Kd [3] of 0.0025 nM and a kon [3] of 2.52e+07 M⁻¹ s⁻¹.

B2: OG1970 (other)
heavy: EVQLVESGGGLVQPGGSLRLSCAASGYTFTDYYINWVRQAPGKGLEWIGDINPITGDTDYNADFKRRFTFSLDTSKSTAYLQMSSLRAEDTAVYYCTREGPSFAYWGQGTLVTVSSASTKGPSVFPLAPSSKSTSGGTAALGCLVKDYFPEPVTVSWNSGALTSGVHTFPAVLQSSGLYSLSSVVTVPSSSLGTQTYICNVNHKPSNTKVDKKVEPKSCDKTHTCPPCPAPEAAGAPSVFLFPPKPKDTLMISRTPEVTCVVVDVSHEDPEVKFNWYVDGVEVHNAKTKPREEQYNSTYRVVSVLTVLHQDWLNGKEYKCKVSNKALPAPIEKTISKAKGQPREPQVYTLPPSREEMTKNQVSLTCLVKGFYPSDIAVEWESNGQPENNYKTTPPVLDSDGSFFLYSKLTVDKSRWQQGNVFSCSVMHEALHNHYTQKSLSCSPGK
light: DIQLTQSPSSLSASVGDRVTITCRSSQTIVHSNGDTYLEWYQQKPGKAPNLLIRKVSNRFSGVPSRFSGSGSGTDFTLTISSLQPEDFATYYCFQGSHVPVTFGQGTKVEIKRTVAAPSVFIFPPSDEQLKSGTASVVCLLNNFYPREAKVQWKVDNALQSGNSQESVTEQDSKDSTYSLSSTLTLSKADYEKHKVYACEVTHQGLSSPVTKSFNRGEC
modifications: polymer OG1802 (9-arm HEMA-PC polymer, about 750-800 kDa, maleimide) bonded through the sulfhydryl of C443 (EU numbering; 442C in SEQ ID NO: 183), on one of the heavy chains
notes: Antibody-polymer conjugate: decapped OG1965 conjugated to polymer OG1802; The stoichiometry of antibody to polymer is described as 1:1; also called OG1965 bioconjugate; OG1965 conjugated to polymer OG1802
B2 was tested, and the “EC50 (nM) in hemolysis assay (rabbit RBC, normal human serum)” value [1] was 1.65 nM, the Kd [2] was 0.00807 nM and the kon [2] was 3.67e+07 M⁻¹ s⁻¹. The Kd [4] was 0.00614 nM and the kon [4] was 2.16e+07 M⁻¹ s⁻¹.

B3: KCD023 (antibody, V domains shown)
VH: EVLLQQSGPELVKPGASVKIPCKASGYTFTDYNIDWVKQSHGKSLEWIGDINPNNGGINYNQKFKGKATLTVDKSSSTAYMELRSLTSEDTAVYYCGTGDYAYWGQGTLVTVSA
VL: QIVLTQSPAFMSASPGEKVTLTCSASSSVSSSYLYWYQQKPGSSPKLWIYSTSNLASGVPGRFSGSGSGTSYSLTISSMEAEDAASYFCHQWTSYPPTFGAGTKLELK
notes: chimeric
In the case of B3, the binding result [5] is reported as “no binding”, the Kd [6] is reported as 5.3 nM and the Kd [7] is reported as 4.1 nM. The Kd [8] was 6 nM, the “Mut1 Binding (% wt)” value [9] was 7.64 % wt and the Kd [10] was 1770 nM.

B4: KCD119 (antibody, V domains shown)
VH: EVQLQQSGPELVKPGASVKISCKASGYTFTDYYTNWMRQRHGESLEWIGDINPNTGDTSYNQKFRVKATLTVDKSSGTAYMGLRSLTSEDSAVYYCTREGPSFAYWGQGTLVTVSA
VL: DVLMTQTPLSLPVSLGDQASISCRSSQTIVHSNGDTYLEWYLQKPGQSPNLLIYKVSNRFSGVPDRFSGSGSGTDFTLKISRVEAEDLGVYYCFQGSHVPPTFGGGTTLEIK
notes: mouse variable domains; full IgG, captured on protein A; also called KCD119-mouse monoclonal antibody; Mouse KCD119
B4 was tested, and the Kd [11] was 0.04 nM and the Kd [12] was 0.375 nM and 0.857 nM.

B5: 34I54I59D84S / 54R101V (antibody, human IgG1, V domains shown)
VH: EVQLVESGGGLVQPGGSLRLSCAASGYTFTDYYINWVRQAPGKGLEWIGDINPITGDTDYNADFKRRFTFSLDTSKSTAYLQMSSLRAEDTAVYYCTREGPSFAYWGQGTLVTVSS
VL: DIQLTQSPSSLSASVGDRVTITCRSSQTIVHSNGDTYLEWYQQKPGKAPNLLIRKVSNRFSGVPSRFSGSGSGTDFTLTISSLQPEDFATYYCFQGSHVPVTFGQGTKVEIKR
notes: Human IgG1 kappa; also called OG1965
With B5 the Kd [13] was 0.028 nM, the koff [13] was 0.000978 s⁻¹ and the kon [13] was 3.49e+07 M⁻¹ s⁻¹. The Kd [14] was 0.00504 nM, the koff [14] was 0.000202 s⁻¹ and the kon [14] was 4e+07 M⁻¹ s⁻¹. For the same binder, the Kd [15] was 0.00364 nM, the koff [15] was 5.08e-05 s⁻¹ and the kon [15] was 1.4e+07 M⁻¹ s⁻¹. It also gave a Kd [16] of 0.00437 nM, a koff [16] of 9.02e-05 s⁻¹ and a kon [16] of 2.06e+07 M⁻¹ s⁻¹. The Kd [17] was 0.00437 nM, the koff [17] was 9.02e-05 s⁻¹ and the kon [17] was 2.06e+07 M⁻¹ s⁻¹. The Kd [18] was 0.00504 nM, the koff [18] was 0.000202 s⁻¹ and the kon [18] was 4e+07 M⁻¹ s⁻¹. For the same binder, the Kd [19] was 0.00956 nM, the koff [19] was 0.000241 s⁻¹ and the kon [19] was 2.55e+07 M⁻¹ s⁻¹.

B6: KCD119 TAF (antibody, V domains shown)
VH: EVQLVESGGGLVQPGGSLRLSCAASGYTFTDYYMNWVRQAPGKGLEWIGDINPNTGDTSYNADFKRRFTFSLDTSKSTAYLQMNSLRAEDTAVYYCTREGPSFAYWGQGTLVTVSS
VL: DIQLTQSPSSLSASVGDRVTITCRSSQTIVHSNGDTYLEWYQQKPGKAPNLLIYKVSNRFSGVPSRFSGSGSGTDFTLTISSLQPEDFATYYCFQGSHVPPTFGQGTKVEIK
notes: full IgG captured on protein A; also called TAF KCD119; KCD119 CDRs grafted into the TAF framework
With B6 the Kd [11] was 0.23 nM.

B7: KCD009 (antibody, V domains shown)
VH: QIQLVQSGPELKKPGETVKISCKASGYIFRNYGMNWVKQGPGKGLKWMGWINTYTGEPTYADDFKGRFAFSLETSASTAYLQISNLKNEDTATYFCVRDGPGFAYWGQGTLVTVSA
VL: DVLMTQTPLSLPVSLGDQASISCRSSLIIEHSDGNTYLEWYLQKPGQSPKLLIYKVSNRFSGVPDRFSGSGSGTDFTLKISRVEADDLGVYYCFQGSHVPVTFGAGTNLELK
notes: chimeric
With B7 the binding result [5] was “no binding”, the Kd [6] was 5.6 nM and the Kd [7] was 4 nM. For the same binder, the Kd [8] was 9.9 nM, the “Mut1 Binding (% wt)” value [9] was 5.15 % wt and the Kd [10] was 3.47 nM.

B8: KCD070 (antibody, V domains shown)
VH: EIQLQQTGPELVKPGASVKISCKASGYSFTDYIILWVKQSHGKSLEWIGNINPYYDYTSYNLKFKGKATLTVDKSSSTAYMQLNSLTSEDSAVYYCARSDGYYGGDYWGQGTSVTVSS
VL: DIVMTQSHKFMSTSVGDRVSITCKASQDVGTAVAWYQQKPGQSPKLLIYWASTRHTGVPDRFTGSGSGTDFTLTINNVQSEDLADYFCQQYSSYPWTFGGGTTLEIK
notes: chimeric
For B8, the Kd [20] was 1.77 nM, the “Mut1 Binding (% wt)” value [21] was 84.6 % wt and the Kd [6] was 3.8 nM. It also gave a Kd [7] of 3.3 nM, a Kd [22] of 0.7 nM and a Kd [8] of 4.9 nM.

B9: KCD048 (antibody, V domains shown)
VH: EVQLQQSGADLVKPGASVKLSCTASGFNIKATYMHWVRQRPEKGLEWIGRIDPANGHTIYDPQFQGKATITSDTSSNTAYLQLNSLTSEDTAVYYCAEAMDYWGQGTSVTVSS
VL: QIVLTQSPAIMSASPGEKVTLTCSATSSVSYMYWYQQKPGSSPRLLIYDTSNLASGVPVRFSGSGSGTSYSLTISRMEAEDDATYYCQQWSNYPFTFGGGTKLEIK
notes: chimeric
With B9 the Kd [20] was 0.997 nM, the “Mut1 Binding (% wt)” value [21] was 62.3 % wt and the Kd [6] was 1.9 nM. For the same binder, the Kd [22] was 0.83 nM and the Kd [8] was 21 nM.

Source: patent publication US20180334496A1 (KODIAK SCIENCES, published 2018)
